Patent US20150374794A1 (Novo Nordisk, published 2015)
Numbered stars: 1 amine (or outer) side, 2 acyl side, 3 side chain; on linkers, the order of the positions; unused ones are H or OH. Square brackets hold non-standard residues; d marks the D form. Side chains are listed from the residue outwards. Ends that are not written are not given here. * marks the point of attachment. C18 diacid = O=C(O)CCCCCCCCCCCCCCCCC(=O)*; γGlu = O=C(O)[C@H](CCC(=O)[*:2])N[*:1]; Ac4c = NC1(C(=O)O)CCC1; AEEA = NCCOCCOCC(=O)O; Aib = CC(C)(N)C(=O)O

Tests used:
human GLP-1 receptor [1] = biological target: T1, human GLP-1 receptor (human, UniProt P43220 24-463); experiment: displacement of 125I-GLP-1(7-36)NH2, membranes with human GLP-1R, SPA
T1 construct: whole, on cells; the potency assay used whole cells (clone FCW467-12A/KZ10-1)
Protocol: (§1) The receptor binding of each compound to the human GLP-1 receptor was measured in a displacement binding assay. […] Each derivative was added in a series of concentrations to isolated membranes containing the human GLP-1 receptor and displacement of the labelled ligand was monitored. The receptor binding was reported as the concentration at which half of the labelled ligand was displaced from the receptor, the IC₅₀ value.

human GLP-1 receptor [2] = biological target: T1, human GLP-1 receptor; experiment: cell-based or functional assay
human glucagon receptor [3] = biological target: T2, human glucagon receptor (human, UniProt P47871 26-477); experiment: cell-based or functional assay
human glucagon receptor [4] = biological target: T2, human glucagon receptor; experiment: displacement of 125I-glucagon, membranes with human glucagon receptor, SPA
Protocol: as §1, with “human glucagon” for “human GLP-1”, “ligand is” for “ligand was”

T2 sequence (P47871 26-477): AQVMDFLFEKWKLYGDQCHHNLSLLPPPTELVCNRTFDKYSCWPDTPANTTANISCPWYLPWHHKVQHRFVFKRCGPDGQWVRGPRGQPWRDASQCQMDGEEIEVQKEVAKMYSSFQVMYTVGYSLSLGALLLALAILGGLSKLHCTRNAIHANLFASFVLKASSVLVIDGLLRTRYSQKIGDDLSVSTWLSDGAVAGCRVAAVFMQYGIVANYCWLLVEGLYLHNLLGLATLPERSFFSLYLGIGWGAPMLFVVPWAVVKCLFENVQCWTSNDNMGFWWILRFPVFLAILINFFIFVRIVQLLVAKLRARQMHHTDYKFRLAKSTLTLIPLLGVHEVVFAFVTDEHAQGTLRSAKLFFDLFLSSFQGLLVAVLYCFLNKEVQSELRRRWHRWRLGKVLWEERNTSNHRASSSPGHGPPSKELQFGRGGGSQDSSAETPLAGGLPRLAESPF

Binder	IC50 (human GLP-1 receptor [1]) [nM]	EC50 GLP-1R, CRE luciferase reporter gene assay in BHK cells (human GLP-1 receptor [2]) [nM]	EC50 GlucR, CRE luciferase reporter gene assay in BHK cells (human glucagon receptor [3]) [nM]	IC50 (human glucagon receptor [4]) [nM]
H[Aib]QGTFTSDLSKYLESKAAREFVQWLLK([γGlu-γGlu-AEEA-AEEA-γGlu-C18 diacid])T-NH2 (N-terminus assumed; SMILES CC(C)C[C@H](NC(=O)[C@H](Cc1ccc(O)cc1)NC(=O)[C@H](CCCCN)NC(=O)[C@H](CO)NC(=O)[C@H](CC(C)C)NC(=O)[C@H](CC(=O)O)NC(=O)[C@H](CO)NC(=O)[C@@H](NC(=O)[C@H](Cc1ccccc1)NC(=O)[C@@H](NC(=O)CNC(=O)[C@H](CCC(N)=O)NC(=O)C(C)(C)NC(=O)[C@@H](N)Cc1c[nH]cn1)[C@@H](C)O)[C@@H](C)O)C(=O)N[C@@H](CCC(=O)O)C(=O)N[C@@H](CO)C(=O)N[C@@H](CCCCN)C(=O)N[C@@H](C)C(=O)N[C@@H](C)C(=O)N[C@@H](CCCNC(=N)N)C(=O)N[C@@H](CCC(=O)O)C(=O)N[C@@H](Cc1ccccc1)C(=O)N[C@H](C(=O)N[C@@H](CCC(N)=O)C(=O)N[C@@H](Cc1c[nH]c2ccccc12)C(=O)N[C@@H](CC(C)C)C(=O)N[C@@H](CC(C)C)C(=O)N[C@@H](CCCCNC(=O)CC[C@H](NC(=O)CC[C@H](NC(=O)COCCOCCNC(=O)COCCOCCNC(=O)CC[C@H](NC(=O)CCCCCCCCCCCCCCCCC(=O)O)C(=O)O)C(=O)O)C(=O)O)C(=O)N[C@H](C(N)=O)[C@@H](C)O)C(C)C)	0.2	0.0119	0.506	61
H[Aib]QGTFTSDLSKYLDARRAREFVQWLLK([γGlu-γGlu-AEEA-AEEA-γGlu-C18 diacid])T-NH2 (N-terminus assumed; SMILES CC(C)C[C@H](NC(=O)[C@H](Cc1ccc(O)cc1)NC(=O)[C@H](CCCCN)NC(=O)[C@H](CO)NC(=O)[C@H](CC(C)C)NC(=O)[C@H](CC(=O)O)NC(=O)[C@H](CO)NC(=O)[C@@H](NC(=O)[C@H](Cc1ccccc1)NC(=O)[C@@H](NC(=O)CNC(=O)[C@H](CCC(N)=O)NC(=O)C(C)(C)NC(=O)[C@@H](N)Cc1c[nH]cn1)[C@@H](C)O)[C@@H](C)O)C(=O)N[C@@H](CC(=O)O)C(=O)N[C@@H](C)C(=O)N[C@@H](CCCNC(=N)N)C(=O)N[C@@H](CCCNC(=N)N)C(=O)N[C@@H](C)C(=O)N[C@@H](CCCNC(=N)N)C(=O)N[C@@H](CCC(=O)O)C(=O)N[C@@H](Cc1ccccc1)C(=O)N[C@H](C(=O)N[C@@H](CCC(N)=O)C(=O)N[C@@H](Cc1c[nH]c2ccccc12)C(=O)N[C@@H](CC(C)C)C(=O)N[C@@H](CC(C)C)C(=O)N[C@@H](CCCCNC(=O)CC[C@H](NC(=O)CC[C@H](NC(=O)COCCOCCNC(=O)COCCOCCNC(=O)CC[C@H](NC(=O)CCCCCCCCCCCCCCCCC(=O)O)C(=O)O)C(=O)O)C(=O)O)C(=O)N[C@H](C(N)=O)[C@@H](C)O)C(C)C)	0.3	0.005	0.002	5.6
H[Ac4c]QGTFTSDLSKYLDLRRARDFVQWLLK([γGlu-γGlu-AEEA-AEEA-γGlu-γGlu-C18 diacid])T-NH2 (N-terminus assumed; SMILES CC(C)C[C@H](NC(=O)[C@H](CC(=O)O)NC(=O)[C@H](CC(C)C)NC(=O)[C@H](Cc1ccc(O)cc1)NC(=O)[C@H](CCCCN)NC(=O)[C@H](CO)NC(=O)[C@H](CC(C)C)NC(=O)[C@H](CC(=O)O)NC(=O)[C@H](CO)NC(=O)[C@@H](NC(=O)[C@H](Cc1ccccc1)NC(=O)[C@@H](NC(=O)CNC(=O)[C@H](CCC(N)=O)NC(=O)C1(NC(=O)[C@@H](N)Cc2c[nH]cn2)CCC1)[C@@H](C)O)[C@@H](C)O)C(=O)N[C@@H](CCCNC(=N)N)C(=O)N[C@@H](CCCNC(=N)N)C(=O)N[C@@H](C)C(=O)N[C@@H](CCCNC(=N)N)C(=O)N[C@@H](CC(=O)O)C(=O)N[C@@H](Cc1ccccc1)C(=O)N[C@H](C(=O)N[C@@H](CCC(N)=O)C(=O)N[C@@H](Cc1c[nH]c2ccccc12)C(=O)N[C@@H](CC(C)C)C(=O)N[C@@H](CC(C)C)C(=O)N[C@@H](CCCCNC(=O)CC[C@H](NC(=O)CC[C@H](NC(=O)COCCOCCNC(=O)COCCOCCNC(=O)CC[C@H](NC(=O)CC[C@H](NC(=O)CCCCCCCCCCCCCCCCC(=O)O)C(=O)O)C(=O)O)C(=O)O)C(=O)O)C(=O)N[C@H](C(N)=O)[C@@H](C)O)C(C)C)	0.4	0.018	0.006	4.5
H[Ac4c]QGTFTSDLSRYLDLRRARDFVQWLLK([γGlu-γGlu-AEEA-AEEA-γGlu-γGlu-C18 diacid])T-NH2 (N-terminus assumed; SMILES CC(C)C[C@H](NC(=O)[C@H](CC(=O)O)NC(=O)[C@H](CC(C)C)NC(=O)[C@H](Cc1ccc(O)cc1)NC(=O)[C@H](CCCNC(=N)N)NC(=O)[C@H](CO)NC(=O)[C@H](CC(C)C)NC(=O)[C@H](CC(=O)O)NC(=O)[C@H](CO)NC(=O)[C@@H](NC(=O)[C@H](Cc1ccccc1)NC(=O)[C@@H](NC(=O)CNC(=O)[C@H](CCC(N)=O)NC(=O)C1(NC(=O)[C@@H](N)Cc2c[nH]cn2)CCC1)[C@@H](C)O)[C@@H](C)O)C(=O)N[C@@H](CCCNC(=N)N)C(=O)N[C@@H](CCCNC(=N)N)C(=O)N[C@@H](C)C(=O)N[C@@H](CCCNC(=N)N)C(=O)N[C@@H](CC(=O)O)C(=O)N[C@@H](Cc1ccccc1)C(=O)N[C@H](C(=O)N[C@@H](CCC(N)=O)C(=O)N[C@@H](Cc1c[nH]c2ccccc12)C(=O)N[C@@H](CC(C)C)C(=O)N[C@@H](CC(C)C)C(=O)N[C@@H](CCCCNC(=O)CC[C@H](NC(=O)CC[C@H](NC(=O)COCCOCCNC(=O)COCCOCCNC(=O)CC[C@H](NC(=O)CC[C@H](NC(=O)CCCCCCCCCCCCCCCCC(=O)O)C(=O)O)C(=O)O)C(=O)O)C(=O)O)C(=O)N[C@H](C(N)=O)[C@@H](C)O)C(C)C)	1.1	0.021	0.016	8.5
H[Ac4c]QGTFTSDLSKYLDLKRAREFVQWLLK([γGlu-γGlu-AEEA-AEEA-γGlu-γGlu-C18 diacid])T-NH2 (N-terminus assumed; SMILES CC(C)C[C@H](NC(=O)[C@H](CC(=O)O)NC(=O)[C@H](CC(C)C)NC(=O)[C@H](Cc1ccc(O)cc1)NC(=O)[C@H](CCCCN)NC(=O)[C@H](CO)NC(=O)[C@H](CC(C)C)NC(=O)[C@H](CC(=O)O)NC(=O)[C@H](CO)NC(=O)[C@@H](NC(=O)[C@H](Cc1ccccc1)NC(=O)[C@@H](NC(=O)CNC(=O)[C@H](CCC(N)=O)NC(=O)C1(NC(=O)[C@@H](N)Cc2c[nH]cn2)CCC1)[C@@H](C)O)[C@@H](C)O)C(=O)N[C@@H](CCCCN)C(=O)N[C@@H](CCCNC(=N)N)C(=O)N[C@@H](C)C(=O)N[C@@H](CCCNC(=N)N)C(=O)N[C@@H](CCC(=O)O)C(=O)N[C@@H](Cc1ccccc1)C(=O)N[C@H](C(=O)N[C@@H](CCC(N)=O)C(=O)N[C@@H](Cc1c[nH]c2ccccc12)C(=O)N[C@@H](CC(C)C)C(=O)N[C@@H](CC(C)C)C(=O)N[C@@H](CCCCNC(=O)CC[C@H](NC(=O)CC[C@H](NC(=O)COCCOCCNC(=O)COCCOCCNC(=O)CC[C@H](NC(=O)CC[C@H](NC(=O)CCCCCCCCCCCCCCCCC(=O)O)C(=O)O)C(=O)O)C(=O)O)C(=O)O)C(=O)N[C@H](C(N)=O)[C@@H](C)O)C(C)C)	0.2	0.017	0.005	1.5
H[Ac4c]QGTFTSDLSRYLESRRAREFVQWLLK([γGlu-γGlu-AEEA-AEEA-γGlu-γGlu-C18 diacid])T-NH2 (N-terminus assumed; SMILES CC(C)C[C@H](NC(=O)[C@H](Cc1ccc(O)cc1)NC(=O)[C@H](CCCNC(=N)N)NC(=O)[C@H](CO)NC(=O)[C@H](CC(C)C)NC(=O)[C@H](CC(=O)O)NC(=O)[C@H](CO)NC(=O)[C@@H](NC(=O)[C@H](Cc1ccccc1)NC(=O)[C@@H](NC(=O)CNC(=O)[C@H](CCC(N)=O)NC(=O)C1(NC(=O)[C@@H](N)Cc2c[nH]cn2)CCC1)[C@@H](C)O)[C@@H](C)O)C(=O)N[C@@H](CCC(=O)O)C(=O)N[C@@H](CO)C(=O)N[C@@H](CCCNC(=N)N)C(=O)N[C@@H](CCCNC(=N)N)C(=O)N[C@@H](C)C(=O)N[C@@H](CCCNC(=N)N)C(=O)N[C@@H](CCC(=O)O)C(=O)N[C@@H](Cc1ccccc1)C(=O)N[C@H](C(=O)N[C@@H](CCC(N)=O)C(=O)N[C@@H](Cc1c[nH]c2ccccc12)C(=O)N[C@@H](CC(C)C)C(=O)N[C@@H](CC(C)C)C(=O)N[C@@H](CCCCNC(=O)CC[C@H](NC(=O)CC[C@H](NC(=O)COCCOCCNC(=O)COCCOCCNC(=O)CC[C@H](NC(=O)CC[C@H](NC(=O)CCCCCCCCCCCCCCCCC(=O)O)C(=O)O)C(=O)O)C(=O)O)C(=O)O)C(=O)N[C@H](C(N)=O)[C@@H](C)O)C(C)C)	0.2	0.004	0.017	1.4
